From FireProtDB (doi:10.1021/bi061295h)

Settings: Equus caballus, pH 7.4, 25 °C, GdnHCl, reversible: Yes

Cytochrome c wild type, P00004, sequence (P00004 whole entry): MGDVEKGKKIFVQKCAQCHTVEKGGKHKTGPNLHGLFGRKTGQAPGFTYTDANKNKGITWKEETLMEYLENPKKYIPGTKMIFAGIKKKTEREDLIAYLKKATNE

In the case of Cytochrome c wild type, P00004, the denaturant m value (CD, Tris 20 mM) is reported as 2.8 kcal/mol/M, the unfolding free energy (CD, Tris 20 mM) is reported as 7.4 kcal/mol and the denaturant m value (SUPREX, Sodium phosphate 20 mM) is reported as 3 kcal/mol/M.
